Positions count from the first letter of the chain named.
B1: PSMB952 (antibody, V domains shown)
VH: EVQLVESGGGLVQPGGSLRLSCAASGFTFSSYAMSWVRQAPGKGLEWVSAISGGIGSTYYADSVKGRFTISRDNSKNTLWLQMNSLRAEDTAVYYCAKDGVGATPYYFDYWGQGTLVTVSS
VL: QSVLTQPPSVSAAPGQKVTISCSGSSSNIGINYVSWYQQLPGTAPKLLIYDNNKRPSGIPDRFSGSKSGTSATLGITGLQTGDEADYYCGTWDSSLSAVVFGGGTKLTVL
B2: PSMB956 (antibody, V domains shown)
VH: B1 VH with I55S, W80Y, T91S
VL: B1 VL
B3: KL2B870 (antibody, human IgG1, kappa)
heavy: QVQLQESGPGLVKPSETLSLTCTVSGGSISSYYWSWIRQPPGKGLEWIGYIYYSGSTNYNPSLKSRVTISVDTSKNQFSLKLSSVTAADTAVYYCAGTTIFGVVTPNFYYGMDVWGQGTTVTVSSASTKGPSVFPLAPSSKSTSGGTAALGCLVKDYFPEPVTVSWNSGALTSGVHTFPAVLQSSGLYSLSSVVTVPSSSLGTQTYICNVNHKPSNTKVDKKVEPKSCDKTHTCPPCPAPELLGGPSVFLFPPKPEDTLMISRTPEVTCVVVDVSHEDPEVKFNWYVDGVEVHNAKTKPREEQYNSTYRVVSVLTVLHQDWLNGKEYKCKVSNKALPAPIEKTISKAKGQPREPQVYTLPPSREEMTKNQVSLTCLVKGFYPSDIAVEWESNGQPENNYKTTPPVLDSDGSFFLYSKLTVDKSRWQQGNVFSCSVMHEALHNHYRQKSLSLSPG
light: DIQMTQSPSFLSASVGDRVTITCRASQGISSYLAWYQQKPGKAPKFLIYAASTLQSGVPSRFSGSGSGTEFTLTISSLQPEDFATYYCQQLNSYPLTFGGGTKVEIKRTVAAPSVFIFPPSDEQLKSGTASVVCLLNNFYPREAKVQWKVDNALQSGNSQESVTEQDSKDSTYSLSSTLTLSKADYEKHKVYACEVTHQGLSSPVTKSFNRGEC
B4: KL2B872.CLF (antibody, human IgG1, kappa)
heavy: not shown
light: B3 light
B5: KL2B870.CLF (antibody, human IgG1, kappa)
heavy: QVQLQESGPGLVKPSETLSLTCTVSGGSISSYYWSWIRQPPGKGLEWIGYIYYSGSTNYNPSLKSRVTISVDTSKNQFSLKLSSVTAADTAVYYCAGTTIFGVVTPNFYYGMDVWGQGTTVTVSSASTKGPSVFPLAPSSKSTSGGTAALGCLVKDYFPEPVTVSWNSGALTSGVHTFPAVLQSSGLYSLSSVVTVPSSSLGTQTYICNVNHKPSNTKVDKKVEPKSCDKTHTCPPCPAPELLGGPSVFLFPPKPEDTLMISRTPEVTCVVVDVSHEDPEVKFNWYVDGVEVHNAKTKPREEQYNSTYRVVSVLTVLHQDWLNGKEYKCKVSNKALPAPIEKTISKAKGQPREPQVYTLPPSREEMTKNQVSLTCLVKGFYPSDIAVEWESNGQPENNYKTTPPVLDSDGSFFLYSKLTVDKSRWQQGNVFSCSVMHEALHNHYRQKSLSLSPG
light: B3 light

Experiments:
Test in all cases: cell-based or functional assay
PSMA = PSMA (UniProt Q04609 44-750, limits assumed)
Chain of PSMA (Q04609 44-750 limits assumed): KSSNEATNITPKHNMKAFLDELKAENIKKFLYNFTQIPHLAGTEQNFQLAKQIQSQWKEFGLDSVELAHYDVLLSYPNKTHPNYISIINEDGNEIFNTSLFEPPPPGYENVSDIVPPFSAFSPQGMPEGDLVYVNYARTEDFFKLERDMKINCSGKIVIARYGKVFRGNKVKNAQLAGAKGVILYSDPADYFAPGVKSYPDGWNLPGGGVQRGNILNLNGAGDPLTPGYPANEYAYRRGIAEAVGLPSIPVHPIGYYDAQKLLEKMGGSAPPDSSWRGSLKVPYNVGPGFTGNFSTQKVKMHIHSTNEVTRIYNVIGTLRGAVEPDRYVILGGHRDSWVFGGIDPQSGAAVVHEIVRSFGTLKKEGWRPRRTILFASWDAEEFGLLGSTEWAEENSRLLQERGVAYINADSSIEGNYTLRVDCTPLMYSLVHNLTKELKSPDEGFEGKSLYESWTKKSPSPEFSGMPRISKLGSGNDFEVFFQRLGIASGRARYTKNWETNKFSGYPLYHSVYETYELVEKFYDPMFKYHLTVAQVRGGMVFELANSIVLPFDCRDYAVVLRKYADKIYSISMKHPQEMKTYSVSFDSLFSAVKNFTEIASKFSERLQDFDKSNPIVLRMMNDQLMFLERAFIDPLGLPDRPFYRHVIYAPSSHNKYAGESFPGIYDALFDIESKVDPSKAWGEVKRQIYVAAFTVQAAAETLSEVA

KLK2 [1] = biological target: T1, KLK2 (UniProt P20151 25-261, limits assumed)
T1 sequence (P20151 25-261 limits assumed): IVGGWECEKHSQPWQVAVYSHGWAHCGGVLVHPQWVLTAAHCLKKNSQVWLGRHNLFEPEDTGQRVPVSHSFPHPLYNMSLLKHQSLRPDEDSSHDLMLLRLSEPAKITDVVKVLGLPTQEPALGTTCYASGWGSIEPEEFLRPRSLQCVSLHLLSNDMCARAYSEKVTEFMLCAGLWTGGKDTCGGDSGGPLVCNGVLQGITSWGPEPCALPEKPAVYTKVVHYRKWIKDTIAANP

KLK2 [2] = biological target: T1, KLK2; remark: listed apart in the source

Binder	In vitro ADCC killing EC50 (M), C42B cells, NK cells, 24 hour (PSMA)	In vitro ADCC killing EC50 (M), C42B cells, PBMC, 6 hour (PSMA)	In vitro ADCC killing EC50 (M), LNCaP cells, NK cells, 24 hour (PSMA)	In vitro ADCC killing EC50 (M), LNCaP cells, PBMC, 6 hour (PSMA)	ADCC activity, cell killing of VCaP cells by PBMC (KLK2 [1])	EC50 (M), ADCC killing of VCaP cells by PBMC at 48 hour (KLK2 [2])
B1	2.45e-11 M	3.51e-10 M	4.59e-11 M	2.01e-10 M	–	–
B2	9.96e-12 M	4.23e-10 M	3.58e-11 M	1.52e-10 M	–	–
B3	–	–	–	–	~73%	1e-09 M
B4	–	–	–	–	~85%	4.12e-10 M
B5	–	–	–	–	~89%	3.54e-10 M
